Ends that are not written are not given here.

The test system of one data set is pilotin (OutS). The data set can be described thus: 3JHNHA NMR spectra of secretin peptide with pilotin. The format is binding, Dickeya dadantii. As to conditions: presence of pilotin, 15°C. Here is the method: (§1) Samples of 0.05 to 0.5 mM labelled proteins in 90% H2O, 10% ^2H2O containing 20 mM Tris (pH 7.0) and 150 mM NaCl. All NMR spectra were acquired at 15°C using Bruker Avance 700- and 600-MHz spectrometers. Assignment of ^1H, ^15N, and ^13C resonances of the backbone was achieved by analysis of HNCACB, CBCA (CO)NH triple resonance experiments.
Supplementary file ppat.1002531.s005.doc: Figure S5 3JHNHA spectra of ^15N-labelled secretin peptide (OutD^680–710) in the absence (red) and presence (black) of pilotin (OutS). The spectra were acquired using a Bruker 700 MHz spectrophotometer at measured at 15°C. […] The 3JHNHA coupling constant was calculated according to measurement of the diagonal-peak to cross-peak intensity ratio in a 3D ^15N separated quantitative J-correlation spectra. […] (DOC) Click here for additional data file.

In data set [1] the target is T1, non-lipidated pilotin OutS (residues 26 to 132) of Dickeya dadantii (Dickeya dadantii, UniProt Q01567 26-132, disulfide bridge Cys 61-Cys 115).
T1 chain: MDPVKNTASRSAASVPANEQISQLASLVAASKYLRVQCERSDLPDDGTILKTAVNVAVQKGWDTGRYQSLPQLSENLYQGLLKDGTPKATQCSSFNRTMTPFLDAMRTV
The data set is described as follows: other fluorescence titration; quenching of the single tryptophan of pilotin (1 µM) on titration with 50 µM secretin peptide in 1 µM pilotin; excitation 290 nm, signal at 340 nm, 15°C. As to conditions: both partners purified.

The subject of another data set is non-lipidated OutS. The data set can be described thus: GST pull-down assay. The format is binding, Dickeya dadantii. Here is the method:
(§2) Figure S6. Reducing environment prevents interaction of OutS with the C-terminal peptide of OutD. […] Soluble cell extracts of E. coli BL21(DE3) producing either GST alone (lane 1) or GST-OutD649-710 (lanes 2 and 3) were combined with a periplasmic extract containing non-lipidated OutS, then loaded on Glutathione Agarose for 1 h and washed. The incubations were performed in either TBS (lanes 1 and 2) or TBS with 5 mM DTT (lane 3). Bound proteins were eluted with Laemmli sample buffer, separated by Tricine-SDS-PAGE and either stained (upper panel) or probed with OutS antibodies (lower panel). Asterisk indicates a degradation product of GST-OutD649-710. […] The region coding for mature OutS (residues […]) was fused to the C-terminus of T18 subunit of Cya (pUT18-OutS) and the region coding for GST-OutD649-710 was fused to the C-terminus of T25 subunit of Cya (pKT25-GST-Dct). When pUT18-OutS and pKT25-GST-Dct were coexpressed in E. coli DHP1 cya strain, the coresponding fusion proteins were well produced as shown by immunoblotting with anti-OutS and anti-GST antibodies, respectively. […] is indicated by a dot and T25-GST-Dct by a triangle.

The subject of a further data set is OutS. The data set can be described thus: Bacterial two-hybrid assay. The format is cell-based, Dickeya dadantii. As to the method:
as §2

The next data set has as its system secretin. The data set is described as follows: Effect of pilotin binding-surface mutations on secretin binding. On the set-up: species or system Dickeya dadantii. As to conditions: in words. The source says: The pET-20b(+) plasmid expressing non-lipidated OutS (residues 26 to 132) fused to N-terminal PelB signal peptide has been constructed previously at a manner as the sequence of mature non-lipidated OutS after cleavage by the signal peptidase LepB is: MDP^26VKNT etc. To fuse a C-terminal 6His tag to non-lipidated OutS, SalI site was introduced at the end of outS sequence by using the primer (5′-ctt gac gcc atg cgc acc gtc gac tga ggg gga agc aac tgc) and the reverse complementary one (mutated bases are underlined). Then, by SalI/XhoI digestion the sequence coding for non-lipidated OutS was fused with that coding for 6His. Mutants of OutS were made using Strategene QuikChange and confirmed by sequencing.
Fluorescence data were collected using a Jasco FP-6300 Spectrofluorometer. To avoid exciting tyrosyl side chains, an excitation wavelength of 290 nm was used. Emission spectra were recorded at 15°C in steps of 2 nm from 310 to 400 nm. The fluorescence signal at 340 nm was plotted to calculate K d. Pilotin spectra was measured at 1 µM. 50 µM of secretin peptide prepared in 1 µM pilotin was titrated into pilotin solution (for more information see also Table S1 and reference).

Data set [2] addresses T1, non-lipidated pilotin OutS (residues 26 …). The data set is described as follows: NMR titration; 1H-15N HSQC of 15N-labelled pilotin (100 µM), unlabelled secretin peptides titrated in; 15°C, 20 mM Tris pH 7.0, 150 mM NaCl. As to conditions: both partners purified.
Data set [3] is described as follows: NMR 1H-15N HSQC of free secretin peptide (disorder). The format is physicochemical. As to conditions: 20 mM Tris pH 7.0, 150 mM NaCl, 15°C, 700 MHz. As to the method: as §1
(§3) Supplementary file ppat.1002531.s004.doc: Figure S4 The C-terminus of the 62 residue secretin peptide ([…]) is unstructured. ^1H-^15N HSQC spectra of recombinantly produced ^15N-labelled secretin peptide (70 µM peptide in 20 mM Tris pH 7.0 with 150 mM NaCl at 15°C) acquired using a Bruker 700 MHz spectrophotometer. […] The spectra are cleaner than those shown previously (Figure S2 and S3) because the spectra were acquired quickly. […] (DOC) Click here for additional data file.

Data set [4] can be described thus: Cleavage of secretin peptide during lengthy NMR experiments. It is filed as physicochemical. As to conditions: during more lengthy NMR experiments; 20 mM Tris pH 7.0, 150 mM NaCl, 15°C. Here is the method: as §3
The next data set concerns pilotin. As to conditions: ref [11]; cited from earlier work. The source says:
This secretin peptide was produced with ^15N-label as a fusion to GST and then released with PreScision protease.

On to “OutD^680–710: 15N-labelled secretin peptide (OutD680–710) (DNNTLRLSGGNTYTFRQVQSSISDFYKPEGR; also: 15N-labelled; UniProt Q01565 680-710, looked up, fragment)”, for which, in the data set with pilotin (OutS), the “residues of secretin peptide that become helical on binding” value was “at least four”.

B1: 18 residue synthetic secretin peptide (OutD residues 691 to 708 inclusive) (peptide)
peptide: TYTFRQVQSSISDFYKPE
notes: secretin OutD, Dickeya dadantii, residues 691 to 708 inclusive; also called 18 residue secretin peptide; OutD^691–708; source: synthetic peptide, bought: Generon
As a reminder, the Kd is a measure of binding affinity in units of concentration. A high value points to lower affinity. Usually stoichiometry N stands for the number of molecules, sites or subunits per partner or assembly. B1: in [1], the affinity, expressed as Kd, was 55 ± 20 nM and the “stoichiometry N” value came out at 1.

B2: OutS: Dickeya dadantii type II secretion system pilotin, non-lipidated (residues 26 to 132), UniProt Q01567 (protein)
chain: CQTPAPVKNTASRSAASVPANEQISQLASLVAASKYLRVQCERSDLPDDGTILKTAVNVAVQKGWDTGRYQSLPQLSENLYQGLLKDGTPKATQCSSFNRTMTPFLDAMRTVR
B2: the “binding to cognate secretin with reducing agent, pull-down” value in the data set with non-lipidated OutS (reducing agent, non-lipidated OutS with GST-OutD649–710) was “unable to bind the cognate secretin”. Besides, the “binding to cognate secretin with reducing agent, two-hybrid” value in the data set on OutS (bacterial two-hybrid) is given as “unable to bind the cognate secretin”.

B3: OutS_L96A (protein, UniProt Q01567 21-133, looked up, variant L96A)
Pilotin OutS: CQTPAPVKNTASRSAASVPANEQISQLASLVAASKYLRVQCERSDLPDDGTILKTAVNVAVQKGWDTGRYQSLPQASENLYQGLLKDGTPKATQCSSFNRTMTPFLDAMRTVR
In the case of B3, the “effect of mutation on binding” value in the data set with secretin was “substantial effect on binding”.

B4: OutS_L100A (protein, UniProt Q01567 21-133, looked up, variant L100A)
Pilotin OutS: CQTPAPVKNTASRSAASVPANEQISQLASLVAASKYLRVQCERSDLPDDGTILKTAVNVAVQKGWDTGRYQSLPQLSENAYQGLLKDGTPKATQCSSFNRTMTPFLDAMRTVR
B4: the “effect of mutation on binding” value in the data set with secretin is given as “substantial effect on binding”.

B5: OutS_S49R (protein, UniProt Q01567 21-133, looked up, variant S49R)
Pilotin OutS: CQTPAPVKNTASRSAASVPANEQISQLARLVAASKYLRVQCERSDLPDDGTILKTAVNVAVQKGWDTGRYQSLPQLSENLYQGLLKDGTPKATQCSSFNRTMTPFLDAMRTVR
With B5, the “effect of mutation on binding” value with secretin is reported as “profound effect on binding”.

B6: OutS_Q114A (protein, UniProt Q01567 21-133, looked up, variant Q114A)
Pilotin OutS: CQTPAPVKNTASRSAASVPANEQISQLASLVAASKYLRVQCERSDLPDDGTILKTAVNVAVQKGWDTGRYQSLPQLSENLYQGLLKDGTPKATACSSFNRTMTPFLDAMRTVR
B6: in the data set on secretin, the “effect of mutation on binding” value is “substantial effect on binding”.

B7: 62 residue C-terminal secretin peptide (OutD residues 649-710) (peptide)
chain: DPGQFQEASINKYRSFNNEQQQQRGEGNGVLDNNTLRLSGGNTYTFRQVQSSISDFYKPEGR
notes: secretin OutD, Dickeya dadantii, C-terminal 62 residues (649-710); 15N-labelled in one titration, unlabelled in the other; The peptide is slowly cleaved; also called 62 residue secretin peptide; OutD^648–710; source: E. coli BL21(DE3), purified as GST fusion, released with PreScision protease; not shown: GST, N-terminal, cleaved
B7: the “stoichiometry N” value in data set [2] was 1.

B8: GST-OutD649-710: C-terminal segment of OutD fused to GST; in two-hybrid fused to C-terminus of T25 subunit of Cya (protein)
chain: DPGQFQEASINKYRSFNNEQQQQRGEGNGVLDNNTLRLSGGNTYTFRQVQSSISDFYKPEGR
modifications: not fully specified (N-terminus); also: fused to GST
notes: C-terminal segment of OutD fused to GST; in two-hybrid fused to C-terminus of T25 subunit of Cya
Take B8: the “binding in GST pull-down” value with non-lipidated OutS (reducing conditions, TBS with 5 mM DTT, 1 h on Glutathione Agarose) was “does not bind”. In addition, the “colony colour in bacterial two-hybrid assay” value with OutS (MacConkey-maltose agar, known interacting couple used as positive control) was “white colonies”. In the data set with OutS (reducing conditions of the bacterial cytoplasm, T25/T18 fusions, E. coli DHP1 cya, MacConkey-maltose agar), the “interaction in bacterial two-hybrid assay” value is recorded as “does not interact”.

B9: 62 residue secretin peptide: C-terminal 62 residues of the secretin, produced as a fusion to GST and released with PreScision protease (protein)
chain: DPGQFQEASINKYRSFNNEQQQQRGEGNGVLDNNTLRLSGGNTYTFRQVQSSISDFYKPEGR
modifications: left off: GST, N-terminal, cleaved
notes: C-terminal 62 residues of the secretin, produced as a fusion to GST and released with PreScision protease
For B9, the figures for the “structure in solution (dispersion of backbone amides)” value in [3] and in data set [3] (listed as C-terminal 62 residues) were “intrinsically unstructured” and “unstructured in solution”, respectively. Also, in data set [4], the cleavage of peptide result is recorded as “slowly cleaved”. Also, in the data set with pilotin, the binding to pilotin result is listed as “bound to the pilotin”.

These data come from paper PMC3276575, “Structural and Functional Insights into the Pilotin-Secretin Complex of the Type II Secretion System” (PLoS Pathogens, 2012).
